From patent publication US20250092146A1, “ANTI-CCR8 ANTIBODIES, CONJUGATES, AND USES THEREOF” (Abilita Bio, Inc., priority 2023, published 2025)
Substitutions are numbered along the chain they refer to. Names may count otherwise.

B1: VHH-2: llama anti-hCCR8 VHH, SEQ ID NO: 28; in Tables 12 and 13 tested as human IgG1 Fc fusion (protein)
VHH: QVQLQESGGGLVQAGGSLRLTCAVSGSTSTINRFAWYRQAPGKQRELVAATSSRTSPNYADSVKGRFRFSRDNARSAVYLQMDNLRPEDTAVYFCQARMAMGSSQVVYWGLGTQVTVSS
B2: VHH-2.2: humanized VHH-2, version 2, SEQ ID NO: 110 (protein)
VHH: EVQLVESGGGLVQPGGSLRLSCAVSGSTSTINRFAWYRQAPGKGLEWVAATSSRTSPNYADSVKGRFTFSRDNSKNTVYLQMNSLRAEDTAVYYCQARMAMGSSQVVYWGQGTTVTVSS
B3: VHH-2.3: humanized VHH-2, version 3, SEQ ID NO: 111; Table 13 tested as Fc fusion (protein)
VHH: B2 VHH with L45R, W47L
B4: VHH-1.2: humanized VHH-1, version 2, SEQ ID NO: 107 (protein)
VHH: EVQLVESGGGLVQPGGSLRLSCAASGSTSSIRRIGWYRQAPGKGLEWVARFSSGGGTNYADSVKGRFTISGDNSKNTMYLQMNSLRAEDTAVYYCSARRLLGTSRVDYWGQGTTVTVSS
B5: VHH-1.3: humanized VHH-1, version 3, SEQ ID NO: 108; Table 13 tested as Fc fusion (protein)
VHH: B4 VHH with L45R, W47L
B6: VHH-2.3-1: VHH-2.3 variant D81G, SEQ ID NO: 207; tested as Fc fusion (protein)
VHH: B2 VHH with L45R, W47L, D72G
B7: VHH-2.3-2: VHH-2.3 variant D81G, M108K, SEQ ID NO: 208; tested as Fc fusion (protein)
VHH: B2 VHH with L45R, W47L, D72G, M99K
B8: VHH-2.3-3: VHH-2.3 variant P65L, SEQ ID NO: 209; tested as Fc fusion (protein)
VHH: B2 VHH with L45R, W47L, P57L
B9: VHH-1.3-17: VHH-1.3 variant R37V, R55H, R108I, N83K, SEQ ID NO: 202; tested as Fc fusion (protein)
VHH: B4 VHH with A24V, R32V, L45R, W47L, R50H, N73K, R99I
B10: VHH-1.3-20: VHH-1.3 variant A25V, R38G, S57I, R108I, SEQ ID NO: 205; tested as Fc fusion (protein)
VHH: B4 VHH with A24V, R33G, L45R, W47L, S52I, R99I, T114Q
B11: VHH-1.3-1: VHH-1.3 variant G64S, SEQ ID NO: 186; tested as Fc fusion (protein)
VHH: B4 VHH with L45R, W47L, G56S
B12: VHH-1.3-2: VHH-1.3 variant L110V, SEQ ID NO: 187; tested as Fc fusion (protein)
VHH: B4 VHH with L45R, W47L, L101V
B13: VHH-1.3-18: VHH-1.3 variant A25V, R38G, S57I, N83K, SEQ ID NO: 203; tested as Fc fusion (protein)
VHH: B4 VHH with A24V, R33G, L45R, W47L, S52I, N73K
B14: VHH-1.3-19: VHH-1.3 variant A25V, R38G, R55H, N83K, SEQ ID NO: 204; tested as Fc fusion (protein)
VHH: B4 VHH with A24V, R33G, L45R, W47L, R50H, N73K, T114Q
B15: VHH-1.3-21: VHH-1.3 variant A25V, R38G, S57I, G81A, SEQ ID NO: 206; tested as Fc fusion (protein)
VHH: B4 VHH with A24V, R33G, L45R, W47L, S52I, G71A, T114Q
B16: VHH-2.1: humanized VHH-2, version 1, SEQ ID NO: 109 (protein)
VHH: B2 VHH with V24A, Y37V, A49S, F69I, V78L, Q96A, A97K
B17: VHH-1.1: humanized VHH-1, version 1, SEQ ID NO: 106 (protein)
VHH: B4 VHH with Y37V, A49S, G71R, M78L, S96A, A97K

target: T1, hCCR8 (Homo sapiens, UniProt P51685); experiment: Flow cytometry binding of VHH-Fc fusion antibodies to hCCR8 on stably transfected HEK293 cells; settings: Table 12; VHH-2 CDR alanine mutants as human Fc fusions, HEK293 hCCR8
T1 construct: expressed in transfected cells
T1 sequence (P51685 whole entry, the tested form may be a part): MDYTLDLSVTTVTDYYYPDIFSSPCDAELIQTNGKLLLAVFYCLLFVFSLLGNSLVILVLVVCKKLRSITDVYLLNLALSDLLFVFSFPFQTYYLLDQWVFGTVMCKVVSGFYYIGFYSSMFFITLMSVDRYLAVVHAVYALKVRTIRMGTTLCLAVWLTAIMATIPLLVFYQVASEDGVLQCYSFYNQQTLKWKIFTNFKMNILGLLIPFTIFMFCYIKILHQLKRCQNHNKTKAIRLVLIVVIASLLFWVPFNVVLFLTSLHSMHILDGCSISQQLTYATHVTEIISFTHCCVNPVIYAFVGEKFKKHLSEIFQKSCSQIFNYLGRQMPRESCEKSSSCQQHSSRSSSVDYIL
Protocol: VHH-Fc fusion antibodies were evaluated for their ability to bind to hCCR8 on stably transfected HEK293 cells by means of flow cytometry. Cells were incubated with different concentrations of the bivalent VHH-Fc fusions for 60 minutes at 4° C., followed by two washes with FACS buffer, followed by 30 minutes incubation at 4° C. with the Zenon R-Phycoerythrin Anti-human IgG (ThermoFisher Scientific, #Z-25455), and two additional washing steps. Data were plotted and fit using GraphPad Prism software. EC50 and Bmax values individual antibodies were calculated from the resulting dose-response curves. Bivalent VHH-Fc fusions (Seq ID NOs: 31, 33, and 87-103) of 19 different VHH domains (SEQ ID NOs: 27, 28, and 70-86) were tested for cell binding and results are shown in Table 7. […]
(§1) VHH-Fc fusion DNA constructs were then generated comprising encoding humanized VHH sequences (SEQ ID NOs: 106-111) fused in frame to the human IgG1 (SEQ ID NO: 34) directly to the short hinge sequence in the pFuse expression vector, and were expressed, purified and analyzed for binding to HEK293 cells expressing human CCR8 as in Example 5. Binding curves for VHH-Fc antibodies comprised of parental VHH-1 and the humanized VHH derivatives VHH-1.2-Fc and VHH-1.3-Fc are shown in FIG. 9A. Binding curves for VHH-Fc antibodies comprised of parental VHH-2 and the humanized VHH derivatives VHH-2-Fc, VHH-2.2-Fc and VHH-2.3-Fc, are shown in FIG. 9B. Cell binding EC50 values, normalized Bmax (relative to respective parental clone) data and humanizing mutations are shown in Table 10 below.
Approaches such as in vitro affinity maturation and rational mutagenesis can be performed to regain binding affinity and/or stability lost through humanization. In vitro affinity maturation generally involves building and amino acid substitution library where amino acid positions are varied across the CDRs and/or framework at a defined set of positions using sets of amino acids chosen to introduce new chemical diversity. The paratope residues within the CDR regions are of course key to antigen binding and care must be taken not to disrupt important structures while attempting to evolve improve antibody behavior. One approach to identify positions that are important to the maintenance of binding properties is to perform paratope mapping using single scanning alanine substitutions across antibody CDR regions. In this approach, residues that are critical to the maintenance of antibody binding to the antigen can be identified and at the same time permissive sites can be identified where it may be possible to make substitutions of other amino acids desirable for subsequent affinity maturation library construction. Site directed mutagenesis was used to make single alanine substitutions at each residue in the CDRs of VHH-1 (SEQ ID NO: 27) and VHH-2 (SEQ ID NO: 28). Changes in VHH-1 CDR amino acids to alanine are indicated in Table 11 (SEQ ID NOs: 112-137) and for VHH-2 CDRs (SEQ ID NO: 138-162) in Table 12. Mutation positions and residue changes to alanine with respect to the in the parental VHH sequences are referenced by their IMGT position. VHH domains containing the indicated modified CDR-1, CDR-2 or CDR-3 domains were used to construct Fc fusions by direct grafting to the short hinge of the human Fc domain (SEQ ID NO: 34). VHH-Fc constructs were expressed, purified and analyzed for binding to HEK293 cells expressing hCCR8 and the results are reported in Table 11 and Table 12. EC50 values are reported for each Fc fusion antibody containing a modified CDR, along with its respective Bmax value normalized to the to the matched wild type VHH-1-Fc or VHH-2-Fc fusion antibody.

EC50 [nM] | Molecule
1.3 | B1

same assay, conditions: Table 12; normalized to wild type VHH-2-Fc

% Bmax [%] | Molecule
100 | B1

same assay, conditions: as Fc fusion antibodies

Molecule | binding to hCCR8 expressed on HEK293 cells (in words)
B2 | maintained their hCCR8 binding properties
B3 | maintained their hCCR8 binding properties
B4 | maintained their hCCR8 binding properties
B5 | maintained their hCCR8 binding properties

target: T2, HuT-78 cells that naturally express human CCR8 (Homo sapiens, UniProt P51685); experiment: Flow cytometry binding of yeast-display optimized VHH-Fc antibodies to HuT-78 cells; settings: Table 13; clones tested as VHH-Fc fusions (human IgG1 Fc), HuT-78 cells
T2 construct: HuT-78 cells that naturally express human CCR8 were used as target cells; endogenous in cells; host or cells: HuT-78
T2 sequence (P51685 whole entry, the tested form may be a part): as above
Excerpt: Top VHH sequences were chosen from the FACS sorted populations based on an analysis of improved binding performance relative to the parental sequences and evidence of sequence enrichment by NGS. Candidate VHH were then cloned as VHH-Fc fusions to the short hinge of the IgG1 Fc domain (SEQ ID NO: 34), expressed in HEK293 cells as described earlier and purified for binding evaluation. Bmax values are shown as normalized to VHH-1 or VHH-2 depending on the clone family. […] Mutations are referenced by position according to the IMGT definition.

EC50 [nM] | Molecule
1.19 | B3
0.23 | B6
0.12 | B7
1.7 | B8
0.67 | B9
0.49 | B10
2.03 | B11
5.46 | B5
2.21 | B12
0.31 | B13
0.45 | B14
1.62 | B15
0.24 | B1

same assay, conditions: Table 13; normalized to VHH-1 or VHH-2 depending on clone family

Normalized Bmax (%) | Molecule
88.8 | B3
118.3 | B6
131.9 | B7
83.3 | B8
72.8 | B9
107.6 | B10
85.3 | B11
88.6 | B5
115.7 | B12
113.4 | B13
130.0 | B14
133.9 | B15
100.0 | B1

system: not listed separately; experiment: Production and purification of humanized VHH-Fc from cells; settings: most humanized variants
Excerpt: as §1
Humanization within the framework regions of VHH and other antibodies is known to often have negative impacts of on protein properties such as destabilization of the VHH fold or loss of binding affinity. This is most common when humanized versions of antibodies are constructed by “CDR grafting”, where the individual CDRs are transferred directly to a fully human framework.

Molecule | stability / producibility after humanization
B16 | could not be produced and purified from cells
B17 | could not be produced and purified from cells
